# B1: SMTNL2 (parent)
# chain: ETAAGKGKGEARARLKRSQSFGVA
# Variants of: B1
# Assay: protein stability index of a GFP-peptide fusion (GPS, HEK-293T) (PSI 1-6); higher = more stable
# Settings: c terminus: a fixed tail appended
# 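Note: lentivirally expressed fusions sorted by FACS into six bins by GFP to DsRed ratio, PSI derived from sequencing read proportions per bin multiplied by bin number.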
row,Variant,protein stability index
1,ETAYGKGKGEARARLKRSQSFGVA [A4Y],4.77
2,ETAWGKGKGEARARLKRSQSFGVA [A4W],3.98
3,ETAVGKGKGEARARLKRSQSFGVA [A4V],3.99
4,ETAPGKGKGEARARLKRSQSFGVA [A4P],4.54
5,ETAIGKGKGEARARLKRSQSFGVA [A4I],4.24
6,ETANGKGKGEARARLKRSQSFGVA [A4N],4.13
7,ETAHGKGKGEARARLKRSQSFGVA [A4H],4.3
8,ETAKGKGKGEARARLKRSQSFGVA [A4K],4.81
9,ETARGKGKGEARARLKRSQSFGVA [A4R],4.46
10,ETAEGKGKGEARARLKRSQSFGVA [A4E],5.09
11,ETAQGKGKGEARARLKRSQSFGVA [A4Q],4.78
12,ETACGKGKGEARARLKRSQSFGVA [A4C],4.46
13,ETAGGKGKGEARARLKRSQSFGVA [A4G],4.29
14,ETASGKGKGEARARLKRSQSFGVA [A4S],4.02
15,ETALGKGKGEARARLKRSQSFGVA [A4L],3.81
16,ETATGKGKGEARARLKRSQSFGVA [A4T],4.67
17,ETAMGKGKGEARARLKRSQSFGVA [A4M],4.71
18,ETQAGKGKGEARARLKRSQSFGVA [A3Q],4.56
19,ETIAGKGKGEARARLKRSQSFGVA [A3I],4.13
20,ETYAGKGKGEARARLKRSQSFGVA [A3Y],3.74
21,ETLAGKGKGEARARLKRSQSFGVA [A3L],4.8
22,ETDAGKGKGEARARLKRSQSFGVA [A3D],4.72
23,ETNAGKGKGEARARLKRSQSFGVA [A3N],4.74
24,ETVAGKGKGEARARLKRSQSFGVA [A3V],4.33

row,Variant,protein stability index
1,ETGAGKGKGEARARLKRSQSFGVA [A3G],4.54
2,ETFAGKGKGEARARLKRSQSFGVA [A3F],4.28
3,ETKAGKGKGEARARLKRSQSFGVA [A3K],4.38
4,ETPAGKGKGEARARLKRSQSFGVA [A3P],4.88
5,ETCAGKGKGEARARLKRSQSFGVA [A3C],3.86
6,ETMAGKGKGEARARLKRSQSFGVA [A3M],4.5
7,ETSAGKGKGEARARLKRSQSFGVA [A3S],4.28
8,ETTAGKGKGEARARLKRSQSFGVA [A3T],4.65
9,ETEAGKGKGEARARLKRSQSFGVA [A3E],4.94
10,ETRAGKGKGEARARLKRSQSFGVA [A3R],4.1
11,ETHAGKGKGEARARLKRSQSFGVA [A3H],4.31
12,ETWAGKGKGEARARLKRSQSFGVA [A3W],4.27
13,ETAAGKGKGECRARLKRSQSFGVA [A11C],3.96
14,ETAAGKGKGEDRARLKRSQSFGVA [A11D],4.8
15,ETAAGKGKGLARARLKRSQSFGVA [E10L],3.79
16,ETAAGKGKGTARARLKRSQSFGVA [E10T],4.38
17,ETAAGKGKGQARARLKRSQSFGVA [E10Q],3.9
18,ETAAGKGKGVARARLKRSQSFGVA [E10V],4.27
19,ETAAGKGKGHARARLKRSQSFGVA [E10H],4.44
20,ETAAGKGKGAARARLKRSQSFGVA [E10A],4.33
21,ETAAGKGKGIARARLKRSQSFGVA [E10I],3.96
22,ETAAGKGKGNARARLKRSQSFGVA [E10N],4.21
23,ETAAGKGKGYARARLKRSQSFGVA [E10Y],3.35
24,ETAAGKGKGRARARLKRSQSFGVA [E10R],4.53

row,Variant,protein stability index
1,ETAAGKGKGPARARLKRSQSFGVA [E10P],4.27
2,ETAAGKGKGMARARLKRSQSFGVA [E10M],4.44
3,ETAAGKGKGDARARLKRSQSFGVA [E10D],4.38
4,ETAAGKGKGCARARLKRSQSFGVA [E10C],3.51
5,ETAAGKGKGWARARLKRSQSFGVA [E10W],3.4
6,ETAAGKGKGFARARLKRSQSFGVA [E10F],3.7
7,ETAAGKGKGGARARLKRSQSFGVA [E10G],4.49
8,ETAAGKGKGSARARLKRSQSFGVA [E10S],4.46
9,ETAAGKGKGKARARLKRSQSFGVA [E10K],4.29
10,TTAAGKGKGEARARLKRSQSFGVA [E1T],3.72
11,LTAAGKGKGEARARLKRSQSFGVA [E1L],4.18
12,RTAAGKGKGEARARLKRSQSFGVA [E1R],3.82
13,CTAAGKGKGEARARLKRSQSFGVA [E1C],4.05
14,KTAAGKGKGEARARLKRSQSFGVA [E1K],3.82
15,NTAAGKGKGEARARLKRSQSFGVA [E1N],4.35
16,WTAAGKGKGEARARLKRSQSFGVA [E1W],3.63
17,PTAAGKGKGEARARLKRSQSFGVA [E1P],4.09
18,DTAAGKGKGEARARLKRSQSFGVA [E1D],4.49
19,VTAAGKGKGEARARLKRSQSFGVA [E1V],3.33
20,QTAAGKGKGEARARLKRSQSFGVA [E1Q],4.03
21,MTAAGKGKGEARARLKRSQSFGVA [E1M],3.88
22,GTAAGKGKGEARARLKRSQSFGVA [E1G],4.54
23,FTAAGKGKGEARARLKRSQSFGVA [E1F],3.21
24,STAAGKGKGEARARLKRSQSFGVA [E1S],4.48

row,Variant,protein stability index
1,ITAAGKGKGEARARLKRSQSFGVA [E1I],3.58
2,YTAAGKGKGEARARLKRSQSFGVA [E1Y],3
3,HTAAGKGKGEARARLKRSQSFGVA [E1H],3.94
4,ETAAGKGKPEARARLKRSQSFGVA [G9P],4.43
5,ETAAGKGKHEARARLKRSQSFGVA [G9H],4.58
6,ETAAGKGKCEARARLKRSQSFGVA [G9C],4.21
7,ETAAGKGKQEARARLKRSQSFGVA [G9Q],4.51
8,ETAAGKGKMEARARLKRSQSFGVA [G9M],3.95
9,ETAAGKGKREARARLKRSQSFGVA [G9R],4.27
10,ETAAGKGKLEARARLKRSQSFGVA [G9L],3.6
11,ETAAGKGKWEARARLKRSQSFGVA [G9W],3.27
12,ETAAGKGKTEARARLKRSQSFGVA [G9T],3.6
13,ETAAGKGKYEARARLKRSQSFGVA [G9Y],4.42
14,ETAAGKGKDEARARLKRSQSFGVA [G9D],4.53
15,ETAAGKGKNEARARLKRSQSFGVA [G9N],4.56
16,ETAAGKGKVEARARLKRSQSFGVA [G9V],4.26
17,ETAAGKGKFEARARLKRSQSFGVA [G9F],4.12
18,ETAAGKGKIEARARLKRSQSFGVA [G9I],4.37
19,ETAAGKGKAEARARLKRSQSFGVA [G9A],4.12
20,ETAAGKGKSEARARLKRSQSFGVA [G9S],5.08
21,ETAAGKGKKEARARLKRSQSFGVA [G9K],4.21
22,ETAAGKGKEEARARLKRSQSFGVA [G9E],4.96

# Source: the supplement of paper PMC10567573
